{"source": "the Human Domainome abundance scans (Beltran et al. 2025)", "parents": {"B1": {"name": "POU domain, class 2, transcription factor 2, residues 200 to 269; numbered along this chain, P09086 (parent)", "chain": "LEELEQFARTFKQRRIKLGFTQGDVGLAMGKLYGNDFSQTTISRFEALNLSFKNMCKLKPLLEKWLNDAE"}}, "note": "± gives the uncertainty stated by the source.", "data": [{"variants_of": "B1", "assay": "abundance fitness (aPCA) (normalised: wild type 0, dead -1); higher = more abundant; growth selection in yeast, the domain comes from the species named", "conditions": "Homo sapiens", "values": [{"variant": "L50G", "abundance fitness": "-0.116 ± 0.028"}, {"variant": "L50Y", "abundance fitness": "-0.174 ± 0.066"}, {"variant": "L50V", "abundance fitness": "-0.036 ± 0.045"}, {"variant": "L50F", "abundance fitness": "-0.064 ± 0.065"}, {"variant": "L50I", "abundance fitness": "-0.039 ± 0.05"}, {"variant": "L50H", "abundance fitness": "-0.089 ± 0.056"}, {"variant": "L50N", "abundance fitness": "-0.53 ± 0.1"}, {"variant": "L50R", "abundance fitness": "-0.625 ± 0.044"}, {"variant": "L50W", "abundance fitness": "-0.183 ± 0.043"}, {"variant": "L50T", "abundance fitness": "-0.054 ± 0.052"}, {"variant": "L50E", "abundance fitness": "0.008 ± 0.074"}, {"variant": "L50S", "abundance fitness": "-0.155 ± 0.036"}, {"variant": "L50M", "abundance fitness": "-0.049 ± 0.057"}, {"variant": "L50D", "abundance fitness": "-0.089 ± 0.06"}, {"variant": "L50K", "abundance fitness": "-0.658 ± 0.073"}, {"variant": "L50A", "abundance fitness": "-0.103 ± 0.033"}, {"variant": "L50C", "abundance fitness": "-0.078 ± 0.026"}, {"variant": "L50P", "abundance fitness": "-0.674 ± 0.066"}, {"variant": "A47T", "abundance fitness": "0.017 ± 0.05"}, {"variant": "A47W", "abundance fitness": "-0.325 ± 0.053"}, {"variant": "A47Q", "abundance fitness": "0.035 ± 0.058"}, {"variant": "A47R", "abundance fitness": "-0.085 ± 0.036"}, {"variant": "A47S", "abundance fitness": "0.053 ± 0.042"}, {"variant": "A47P", "abundance fitness": "-0.641 ± 0.11"}, {"variant": "A47V", "abundance fitness": "-0.125 ± 0.041"}, {"variant": "A47Y", "abundance fitness": "-0.26 ± 0.091"}, {"variant": "K57A", "abundance fitness": "-0.057 ± 0.042"}, {"variant": "K57D", "abundance fitness": "-0.47 ± 0.17"}, {"variant": "K57C", "abundance fitness": "-0.058 ± 0.048"}, {"variant": "N54A", "abundance fitness": "-0.046 ± 0.044"}, {"variant": "N54H", "abundance fitness": "0.091 ± 0.091"}, {"variant": "N54S", "abundance fitness": "0.042 ± 0.043"}, {"variant": "N54M", "abundance fitness": "0.103 ± 0.067"}, {"variant": "N54E", "abundance fitness": "0.058 ± 0.088"}, {"variant": "N54D", "abundance fitness": "0.101 ± 0.1"}, {"variant": "N54C", "abundance fitness": "-0.193 ± 0.09"}, {"variant": "N54I", "abundance fitness": "-0.272 ± 0.12"}, {"variant": "N54P", "abundance fitness": "-0.264 ± 0.059"}, {"variant": "N54R", "abundance fitness": "-0.005 ± 0.042"}, {"variant": "N54L", "abundance fitness": "-0.097 ± 0.048"}, {"variant": "N54Q", "abundance fitness": "0.11 ± 0.15"}, {"variant": "N54K", "abundance fitness": "-0.017 ± 0.059"}, {"variant": "N54Y", "abundance fitness": "0.09 ± 0.14"}, {"variant": "N54V", "abundance fitness": "0.032 ± 0.055"}, {"variant": "N54G", "abundance fitness": "-0.017 ± 0.042"}, {"variant": "N54W", "abundance fitness": "-0.081 ± 0.056"}, {"variant": "N54T", "abundance fitness": "0.023 ± 0.09"}, {"variant": "N54F", "abundance fitness": "0.018 ± 0.13"}, {"variant": "N49H", "abundance fitness": "-0.018 ± 0.058"}, {"variant": "N49S", "abundance fitness": "-0.005 ± 0.027"}, {"variant": "N49Q", "abundance fitness": "0.053 ± 0.058"}, {"variant": "N49V", "abundance fitness": "-0.091 ± 0.032"}, {"variant": "N49Y", "abundance fitness": "-0.249 ± 0.096"}, {"variant": "N49W", "abundance fitness": "-0.309 ± 0.044"}, {"variant": "N49L", "abundance fitness": "-0.032 ± 0.034"}, {"variant": "N49E", "abundance fitness": "0.07 ± 0.044"}, {"variant": "N49F", "abundance fitness": "-0.219 ± 0.065"}, {"variant": "N49I", "abundance fitness": "-0.037 ± 0.059"}, {"variant": "N49A", "abundance fitness": "-0.026 ± 0.036"}, {"variant": "N49G", "abundance fitness": "-0.004 ± 0.033"}, {"variant": "N49C", "abundance fitness": "0.012 ± 0.043"}, {"variant": "N49R", "abundance fitness": "-0.052 ± 0.029"}, {"variant": "N49P", "abundance fitness": "-0.671 ± 0.056"}, {"variant": "N49K", "abundance fitness": "-0.007 ± 0.047"}, {"variant": "N49D", "abundance fitness": "0.049 ± 0.063"}, {"variant": "K53Y", "abundance fitness": "-0.092 ± 0.14"}, {"variant": "K53H", "abundance fitness": "0.016 ± 0.071"}, {"variant": "K53E", "abundance fitness": "0.003 ± 0.05"}, {"variant": "K53A", "abundance fitness": "0.004 ± 0.047"}, {"variant": "K53I", "abundance fitness": "-0.073 ± 0.12"}, {"variant": "K53F", "abundance fitness": "-0.044 ± 0.054"}, {"variant": "K53S", "abundance fitness": "0.005 ± 0.043"}, {"variant": "K53M", "abundance fitness": "-0.055 ± 0.054"}, {"variant": "K53Q", "abundance fitness": "0.028 ± 0.045"}, {"variant": "K53T", "abundance fitness": "0.064 ± 0.059"}, {"variant": "K53D", "abundance fitness": "-0.048 ± 0.075"}, {"variant": "K53P", "abundance fitness": "-0.055 ± 0.055"}, {"variant": "K53G", "abundance fitness": "0.002 ± 0.034"}, {"variant": "K53L", "abundance fitness": "-0.015 ± 0.042"}, {"variant": "K53V", "abundance fitness": "-0.014 ± 0.035"}, {"variant": "K53R", "abundance fitness": "-0.022 ± 0.039"}, {"variant": "K53W", "abundance fitness": "-0.079 ± 0.058"}, {"variant": "K53C", "abundance fitness": "-0.098 ± 0.069"}, {"variant": "K53N", "abundance fitness": "-0.236 ± 0.12"}, {"variant": "F52I", "abundance fitness": "-0.028 ± 0.063"}, {"variant": "F52K", "abundance fitness": "-0.031 ± 0.085"}, {"variant": "F52W", "abundance fitness": "-0.024 ± 0.055"}, {"variant": "F52A", "abundance fitness": "-0.038 ± 0.046"}, {"variant": "F52N", "abundance fitness": "-0.069 ± 0.18"}, {"variant": "F52V", "abundance fitness": "-0.035 ± 0.05"}, {"variant": "F52C", "abundance fitness": "-0.062 ± 0.061"}, {"variant": "F52M", "abundance fitness": "-0.105 ± 0.11"}, {"variant": "F52H", "abundance fitness": "-0.2 ± 0.12"}, {"variant": "F52T", "abundance fitness": "0.069 ± 0.061"}, {"variant": "F52G", "abundance fitness": "-0.053 ± 0.039"}, {"variant": "F52Q", "abundance fitness": "-0.087 ± 0.084"}, {"variant": "F52P", "abundance fitness": "-0.115 ± 0.099"}, {"variant": "F52Y", "abundance fitness": "-0.096 ± 0.14"}, {"variant": "F52R", "abundance fitness": "0.032 ± 0.036"}, {"variant": "F52L", "abundance fitness": "-0.014 ± 0.046"}, {"variant": "F52E", "abundance fitness": "-0.044 ± 0.071"}, {"variant": "M55C", "abundance fitness": "-0.439 ± 0.13"}, {"variant": "M55G", "abundance fitness": "-0.097 ± 0.029"}, {"variant": "M55A", "abundance fitness": "-0.022 ± 0.023"}, {"variant": "M55V", "abundance fitness": "-0.142 ± 0.033"}, {"variant": "M55L", "abundance fitness": "-0.021 ± 0.027"}, {"variant": "M55D", "abundance fitness": "-0.435 ± 0.078"}, {"variant": "M55E", "abundance fitness": "-0.512 ± 0.049"}, {"variant": "M55T", "abundance fitness": "-0.213 ± 0.036"}, {"variant": "M55H", "abundance fitness": "-0.164 ± 0.075"}, {"variant": "M55R", "abundance fitness": "-0.502 ± 0.028"}, {"variant": "M55Y", "abundance fitness": "-0.135 ± 0.071"}, {"variant": "M55W", "abundance fitness": "-0.24 ± 0.037"}, {"variant": "M55I", "abundance fitness": "-0.175 ± 0.061"}, {"variant": "M55N", "abundance fitness": "-0.463 ± 0.078"}, {"variant": "M55F", "abundance fitness": "-0.127 ± 0.06"}, {"variant": "S51D", "abundance fitness": "0.06 ± 0.072"}, {"variant": "S51V", "abundance fitness": "-0.507 ± 0.043"}, {"variant": "S51F", "abundance fitness": "-0.832 ± 0.1"}, {"variant": "S51L", "abundance fitness": "-0.785 ± 0.053"}, {"variant": "S51K", "abundance fitness": "-0.019 ± 0.052"}, {"variant": "S51A", "abundance fitness": "-0.117 ± 0.035"}, {"variant": "S51G", "abundance fitness": "-0.05 ± 0.034"}, {"variant": "S51W", "abundance fitness": "-0.907 ± 0.091"}, {"variant": "S51M", "abundance fitness": "-0.317 ± 0.053"}, {"variant": "S51E", "abundance fitness": "0.025 ± 0.05"}, {"variant": "S51C", "abundance fitness": "-0.172 ± 0.072"}, {"variant": "S51Y", "abundance fitness": "-0.461 ± 0.082"}, {"variant": "S51I", "abundance fitness": "-0.684 ± 0.42"}, {"variant": "S51P", "abundance fitness": "0.006 ± 0.034"}, {"variant": "S51R", "abundance fitness": "-0.102 ± 0.035"}, {"variant": "S51H", "abundance fitness": "-0.049 ± 0.075"}, {"variant": "S51T", "abundance fitness": "0.007 ± 0.04"}, {"variant": "S51N", "abundance fitness": "-0.037 ± 0.19"}, {"variant": "L48I", "abundance fitness": "-0.029 ± 0.09"}, {"variant": "L48D", "abundance fitness": "-0.27 ± 0.092"}, {"variant": "L48H", "abundance fitness": "0.023 ± 0.1"}, {"variant": "L48Y", "abundance fitness": "-0.329 ± 0.1"}, {"variant": "L48Q", "abundance fitness": "-0.011 ± 0.06"}, {"variant": "L48W", "abundance fitness": "-0.158 ± 0.04"}, {"variant": "L48A", "abundance fitness": "0.053 ± 0.053"}, {"variant": "L48P", "abundance fitness": "-0.472 ± 0.072"}, {"variant": "L48V", "abundance fitness": "0.018 ± 0.045"}, {"variant": "L48M", "abundance fitness": "-0.031 ± 0.089"}, {"variant": "L48K", "abundance fitness": "0.07 ± 0.076"}, {"variant": "L48E", "abundance fitness": "0.014 ± 0.061"}, {"variant": "L48C", "abundance fitness": "0.049 ± 0.061"}, {"variant": "L48F", "abundance fitness": "0.056 ± 0.077"}, {"variant": "L48N", "abundance fitness": "-0.026 ± 0.076"}, {"variant": "L48S", "abundance fitness": "0.028 ± 0.041"}, {"variant": "C56G", "abundance fitness": "-0.055 ± 0.029"}, {"variant": "C56D", "abundance fitness": "-0.052 ± 0.057"}, {"variant": "C56V", "abundance fitness": "-0.029 ± 0.038"}, {"variant": "C56I", "abundance fitness": "-0.09 ± 0.062"}, {"variant": "C56E", "abundance fitness": "0.002 ± 0.045"}, {"variant": "C56W", "abundance fitness": "-0.046 ± 0.04"}, {"variant": "C56N", "abundance fitness": "-0.064 ± 0.083"}, {"variant": "C56Y", "abundance fitness": "-0.196 ± 0.068"}, {"variant": "C56L", "abundance fitness": "0.007 ± 0.03"}, {"variant": "C56S", "abundance fitness": "-0.029 ± 0.042"}, {"variant": "C56Q", "abundance fitness": "0.062 ± 0.067"}, {"variant": "C56H", "abundance fitness": "-0.082 ± 0.092"}, {"variant": "C56T", "abundance fitness": "0.053 ± 0.042"}, {"variant": "C56R", "abundance fitness": "0.014 ± 0.029"}, {"variant": "C56A", "abundance fitness": "-0.022 ± 0.033"}, {"variant": "C56K", "abundance fitness": "0.015 ± 0.055"}, {"variant": "C56F", "abundance fitness": "-0.034 ± 0.052"}]}]}
